Results on two substances are retold here after publication PMC11734722.

Experiment [1] addresses α-synuclein monomer (not stated (mouse or human recombinant monomer bought)) (UniProt O55042). Put plainly: MST.
For experiment [2], the target named is β-synuclein (β-syn) peptide, 36 to 45 amino acids, all D type. Put plainly: ITC. Background: Isothermal titration calorimetry measures the heat released or taken up as one component is titrated into another.

Regarding “α-synuclein monomer (from UniProt O55042 1-140) (natural protein)”, in experiment [1], the Kd – broadly, the constant that tells how readily two partners part at equilibrium – came to 43.8 µM.
Take “α-synuclein preformed fibrils (α-syn PFF) (from UniProt O55042 1-140) (natural protein)”: in experiment [2], the Kd amounted to 386 nM.
